Data taken from US20210063414A1, “METHODS FOR PREVENTING AND/OR TREATING BONE LOSS CONDITIONS BY MODULATING IRISIN” (Dana-Farber Cancer Institute, Inc., priority 2018, published 2021).

What was measured:
Test in all cases: Crosslinking/co-immunoprecipitation/mass spectrometry (TMT quantitative proteomics) to identify irisin receptors
Assay type in all cases: binding
[1] = biological target: T1, MLO-Y4 cell surface proteins (Mus musculus, UniProt Q9CXD6); conditions: co-precipitated protein Mcur1 (MCUR1_MOUSE)
T1 construct: endogenous in cells; host or cells: MLO-Y4
T1 sequence (Q9CXD6 1-340): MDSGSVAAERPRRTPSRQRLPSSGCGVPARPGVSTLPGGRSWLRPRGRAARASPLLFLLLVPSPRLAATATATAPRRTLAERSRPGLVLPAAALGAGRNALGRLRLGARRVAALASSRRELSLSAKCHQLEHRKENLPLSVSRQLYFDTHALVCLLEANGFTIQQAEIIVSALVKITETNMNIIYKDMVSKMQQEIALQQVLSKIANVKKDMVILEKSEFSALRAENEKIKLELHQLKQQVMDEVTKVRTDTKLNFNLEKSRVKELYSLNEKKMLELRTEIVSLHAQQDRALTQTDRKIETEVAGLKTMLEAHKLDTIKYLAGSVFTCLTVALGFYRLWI
Procedure, shortened: (§1)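 Relative protein abundance came from 6-plex TMT MS3 quantitation on an Orbitrap Fusion Lumos, after in-gel trypsin digestion of Coomassie-stained SDS-PAGE lanes. Input was a Ni-NTA pulldown (250 mM imidazole elution) of lysates from murine MLO-Y4 cells. These cells were treated on ice with His-tagged irisin or adipsin (10 nM, 20 min) in serum-free medium, then crosslinked with 1.5 mM DTSSP for 30 min.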

[2] = biological target: T2, MLO-Y4 cell surface proteins (Mus musculus, UniProt Q9D051); conditions: co-precipitated protein Pdhb (ODPB_MOUSE)
T2 construct: endogenous in cells; host or cells: MLO-Y4
T2 sequence (Q9D051 31-359): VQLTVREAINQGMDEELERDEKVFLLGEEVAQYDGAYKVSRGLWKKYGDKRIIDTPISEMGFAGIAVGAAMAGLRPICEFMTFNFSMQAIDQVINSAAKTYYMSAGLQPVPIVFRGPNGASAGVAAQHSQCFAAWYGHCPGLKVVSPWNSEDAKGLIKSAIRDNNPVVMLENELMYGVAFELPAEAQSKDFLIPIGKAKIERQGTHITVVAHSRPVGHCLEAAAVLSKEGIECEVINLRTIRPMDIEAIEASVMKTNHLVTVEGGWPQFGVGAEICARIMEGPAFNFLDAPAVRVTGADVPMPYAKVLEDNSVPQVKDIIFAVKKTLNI
Procedure, shortened: as §1

[3] = biological target: T3, MLO-Y4 cell surface proteins (Mus musculus, UniProt Q6ZPE2); conditions: co-precipitated protein Sbf1 (MTMR5_MOUSE)
T3 construct: endogenous in cells; host or cells: MLO-Y4
Procedure, shortened: as §1

[4] = biological target: T4, MLO-Y4 cell surface proteins (Mus musculus, UniProt Q9D125); conditions: co-precipitated protein Mrps25 (RT25_MOUSE)
T4 construct: endogenous in cells; host or cells: MLO-Y4
Procedure, shortened: as §1

[5] = biological target: T5, MLO-Y4 cell surface proteins (Mus musculus, UniProt O35143); conditions: co-precipitated protein Atpif1 (ATIF1_MOUSE)
T5 construct: endogenous in cells; host or cells: MLO-Y4
T5 sequence (O35143 26-106): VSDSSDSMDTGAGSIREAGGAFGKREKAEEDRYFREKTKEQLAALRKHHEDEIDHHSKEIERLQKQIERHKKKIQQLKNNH
Procedure, shortened: as §1

T3 sequence (Q6ZPE2 whole entry): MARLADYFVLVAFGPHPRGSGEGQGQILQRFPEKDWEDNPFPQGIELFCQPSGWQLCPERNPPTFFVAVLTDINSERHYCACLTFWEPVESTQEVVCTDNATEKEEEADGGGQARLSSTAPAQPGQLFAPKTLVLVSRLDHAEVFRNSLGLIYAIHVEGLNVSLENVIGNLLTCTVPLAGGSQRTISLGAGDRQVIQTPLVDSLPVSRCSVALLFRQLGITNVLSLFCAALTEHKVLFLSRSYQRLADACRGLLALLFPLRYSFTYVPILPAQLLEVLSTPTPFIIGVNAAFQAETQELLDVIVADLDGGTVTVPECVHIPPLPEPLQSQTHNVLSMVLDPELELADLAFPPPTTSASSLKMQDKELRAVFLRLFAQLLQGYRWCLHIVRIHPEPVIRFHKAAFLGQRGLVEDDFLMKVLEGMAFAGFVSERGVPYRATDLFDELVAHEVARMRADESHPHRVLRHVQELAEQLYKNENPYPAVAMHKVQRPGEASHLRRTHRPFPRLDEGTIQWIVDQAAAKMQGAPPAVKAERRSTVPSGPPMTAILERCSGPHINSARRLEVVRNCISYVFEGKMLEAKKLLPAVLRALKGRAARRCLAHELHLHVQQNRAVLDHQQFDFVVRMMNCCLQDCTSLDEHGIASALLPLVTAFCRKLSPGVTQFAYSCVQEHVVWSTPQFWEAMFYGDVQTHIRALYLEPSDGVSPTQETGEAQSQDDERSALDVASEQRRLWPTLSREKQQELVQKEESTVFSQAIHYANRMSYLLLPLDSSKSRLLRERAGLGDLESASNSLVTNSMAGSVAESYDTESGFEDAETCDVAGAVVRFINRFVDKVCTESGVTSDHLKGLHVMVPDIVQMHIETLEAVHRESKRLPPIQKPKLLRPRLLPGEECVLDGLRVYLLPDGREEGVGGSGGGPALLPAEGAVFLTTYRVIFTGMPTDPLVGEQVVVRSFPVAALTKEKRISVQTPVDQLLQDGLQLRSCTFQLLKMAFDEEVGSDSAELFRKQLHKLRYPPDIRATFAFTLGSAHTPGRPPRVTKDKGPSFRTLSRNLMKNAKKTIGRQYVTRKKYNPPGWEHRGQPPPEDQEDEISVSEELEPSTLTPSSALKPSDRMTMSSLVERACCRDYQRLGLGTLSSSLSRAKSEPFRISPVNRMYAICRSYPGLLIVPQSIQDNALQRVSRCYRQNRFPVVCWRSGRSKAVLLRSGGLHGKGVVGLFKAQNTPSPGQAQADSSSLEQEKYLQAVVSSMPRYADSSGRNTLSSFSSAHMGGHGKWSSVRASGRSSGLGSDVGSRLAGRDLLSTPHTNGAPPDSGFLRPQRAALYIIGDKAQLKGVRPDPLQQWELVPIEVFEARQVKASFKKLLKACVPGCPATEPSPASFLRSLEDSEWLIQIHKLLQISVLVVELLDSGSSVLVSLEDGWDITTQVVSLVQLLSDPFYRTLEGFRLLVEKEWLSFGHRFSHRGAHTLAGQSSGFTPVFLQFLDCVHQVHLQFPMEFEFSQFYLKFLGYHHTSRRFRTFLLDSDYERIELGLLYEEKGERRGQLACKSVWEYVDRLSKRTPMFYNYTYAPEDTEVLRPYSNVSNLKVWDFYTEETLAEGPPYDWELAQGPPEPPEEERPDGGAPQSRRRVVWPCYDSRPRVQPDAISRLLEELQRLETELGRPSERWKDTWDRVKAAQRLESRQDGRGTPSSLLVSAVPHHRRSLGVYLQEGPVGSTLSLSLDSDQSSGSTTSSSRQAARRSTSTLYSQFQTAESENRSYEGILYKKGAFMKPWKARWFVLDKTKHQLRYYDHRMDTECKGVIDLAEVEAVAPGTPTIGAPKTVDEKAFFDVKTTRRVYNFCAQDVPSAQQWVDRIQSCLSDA

- TMT signal-to-noise ratio [1]: 1631.69
- TMT signal-to-noise ratio [2]: 365.712
- TMT signal-to-noise ratio [3]: 71.1304
- TMT signal-to-noise ratio [4]: 84.7592
- TMT signal-to-noise ratio [5]: 454.155
Substance: adipsin
